Values of other authors, collected in publication PMC6292179.

Biological target: IL-18BP (Homo sapiens) (UniProt O95998)
Sequence (O95998 31-194): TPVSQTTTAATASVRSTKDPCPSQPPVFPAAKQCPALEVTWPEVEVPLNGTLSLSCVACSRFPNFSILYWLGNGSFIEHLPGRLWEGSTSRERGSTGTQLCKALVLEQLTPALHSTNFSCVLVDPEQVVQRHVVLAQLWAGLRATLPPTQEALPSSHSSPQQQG

IL-18, sequence (Q14116 37-193): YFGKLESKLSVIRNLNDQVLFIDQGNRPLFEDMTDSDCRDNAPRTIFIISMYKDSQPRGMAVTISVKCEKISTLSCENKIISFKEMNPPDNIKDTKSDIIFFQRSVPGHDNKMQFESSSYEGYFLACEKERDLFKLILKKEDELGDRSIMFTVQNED

Which Kd does the source give for IL-18 (from UniProt Q14116) here?
The Kd was 0.4 nM.
